Laboratory results: patent publication US20260053942A1 (Astellas, published 2026)

Target: T1, human TROP2 as used in the Biacore measurements (human, UniProt P09758 27-274)
T1 sequence: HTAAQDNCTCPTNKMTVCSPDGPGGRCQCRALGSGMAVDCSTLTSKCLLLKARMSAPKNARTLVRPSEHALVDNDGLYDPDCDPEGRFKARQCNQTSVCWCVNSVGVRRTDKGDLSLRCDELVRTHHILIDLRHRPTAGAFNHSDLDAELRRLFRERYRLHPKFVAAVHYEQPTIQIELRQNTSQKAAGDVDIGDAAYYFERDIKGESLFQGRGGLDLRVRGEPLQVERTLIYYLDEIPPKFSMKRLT
Assay: SPR (Biacore), format not stated

Kd: 1.1 nM
B1: 2293-C04, affinity matured anti-Trop2 antibody from a synthetic ribosome display human antibody library (antibody, V domains shown)
VH: EVQLVESGGGLVQPGGSLRLSCAASGFNISNKWIHWVRQAPGKGLEWVGWIAPSSGDTDYADSVKGRFTISADTSKNTAYLQMNSLRAEDTAVYYCAREGYNWYWYVLDYWGQGTLVTVSS
VL: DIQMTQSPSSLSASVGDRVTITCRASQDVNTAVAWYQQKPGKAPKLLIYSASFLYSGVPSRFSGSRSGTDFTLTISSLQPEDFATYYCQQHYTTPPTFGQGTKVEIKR
modifications: SEQ ID NO 17 is listed with pAcF at K42; the filing does not say whether the antibody measured by Biacore carried it
